According to publication PMC11602438:

Tests used:
[1] = tested on: YggS (E. coli PLP-BP), wild type (Escherichia coli); experiment: EMSA; conditions: apo-form (no PLP); REMSA with fixed RNA: 10 mM HEPES pH 7.3, 10 mM KCl, 1 mM MgCl2, 1 mM DTT, 5% glycerol, RT 30 min; 5% native PAGE, 0.5x TBE (fixed-protein REMSA: 20 mM HEPES …)
[2] = molecular target: T1, YggS (E. coli PLP-BP), wild type (Escherichia coli) (UniProt P67080); experiment: EMSA; conditions: REMSA with fixed RNA: 10 mM HEPES pH 7.3, 10 mM KCl, 1 mM MgCl2, 1 mM DTT, 5% glycerol, RT 30 min; 5% native PAGE, 0.5x TBE (fixed-protein REMSA: 20 mM HEPES …)
T1 sequence: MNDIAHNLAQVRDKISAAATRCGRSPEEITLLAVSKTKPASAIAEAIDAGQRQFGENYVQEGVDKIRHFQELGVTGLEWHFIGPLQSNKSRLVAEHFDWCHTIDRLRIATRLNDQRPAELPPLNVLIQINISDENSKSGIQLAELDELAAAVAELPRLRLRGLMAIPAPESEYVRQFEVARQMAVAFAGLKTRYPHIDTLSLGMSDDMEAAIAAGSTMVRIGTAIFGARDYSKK

Substance: RnpB RNA fragment (210-357)
- Kd [1]: 3.4 µM

Substance: GGGUGGUAACAGUCCGUGGCACGGUAAACUCCACCCGGAGCAAGGCCAAAUAGGGGUUCAUAAGGUACGGCCCGUACUGAACCCGGGUAGGCUGCUUGAGCCAGUGAGCGAUUGCUGGCCUAGAUGAAUGACUGUCCACGACAGAACCCGG [RnpB RNA fragment (210-357)]
- Kd [2]: 3.4 µM

Substance: SsrA RNA fragment (198-318)
- Kd [1]: 2.8 µM

Substance: GGGUCGCGUGGAAGCCCUGCCUGGGGUUGAAGCGUUAAAACUUAAUCAGGCUAGUUUGUUAGUGGCGUGUCCGUCCGCAGCUGGCAAGCGAAUGUAAAGACUGACUAAGCAUGUAGUACCGAGG [SsrA RNA fragment (198-318)]
- Kd [2]: 2.8 µM
